The values below come from patent US20170101458A1.

For test [1], the target named is wild type human low density lipoprotein receptor (hLDLR), isoform 1 (human) (UniProt P01130). Nature of the test: cell-based or functional assay.
For test [2], the target named is hLDLR-K809R\C818A (human) (UniProt P01130). The experiment in a line: cell-based or functional assay.

Regarding “human inducible degrader of LDLR (hIDOL) (from UniProt Q8WY64 1-445)”, the percent LDL positive HEK293 cells, hLDLR co-transfected with hIDOL in test [1] was 2 % of cells. Besides, the percent LDL positive HEK293 cells, hLDLR-K809R\C818A co-transfected with hIDOL in test [2] was 14 % of cells.
